Assay results published in article PMC11283288 (Nature, 2024).

Target: the molecule itself
Assay: cryo-EM structure

B1: Full-length GSDMD(D275A), C-terminal Flag, palmitoylated (natural protein, human, UniProt P57764 1-484, looked up)
chain: MGSAFERVVRRVVQELDHGGEFIPVTSLQSSTGFQPYCLVVRKPSSSWFWKPRYKCVNLSIKDILEPDAAEPDVQRGRSFHFYDAMDGQIQGSVELAAPGQAKIAGGAAVSDSSSTSMNVYSLSVDPNTWQTLLHERHLRQPEHKVLQQLRSRGDNVYVVTEVLQTQKEVEVTRTHKREGSGRFSLPGATCLQGEGQGHLSQKKTVTIPSGSTLAFRVAQLVIDSDLDVLLFPDKKQRTFQPPATGHKRSTSEGAWPQLPSGLSMMRCLHNFLTAGVPAEGAFTEDFQGLRAEVETISKELELLDRELCQLLLEGLEGVLRDQLALRALEEALEQGQSLGPVEPLDGPAGAVLECLVLSSGMLVPELAIPVVYLLGALTMLSETQHKLLAEALESQTLLGPLELVGSLLEQSAPWQERSTMSLPPGLLGNSWGEGAPAWVLLDECGLELGEDTPHVCWEPQAQGRMCALYASLALLSGLSQEPH
modifications: S-palmitoylation at Cys191
- stoichiometry N: 33
